Results published in patent US20200181261A1 (Bayer, published 2020).

Key:
[1] = molecular target: T1, Human CEACAM6-Domain 1-His-I30L (I63L according to SEQ-ID NO: 179) (human); experiment: ELISA, domain 1 protein coated
T1 construct: the entry already carries the substitution; also called TPP-8697
T1 chain: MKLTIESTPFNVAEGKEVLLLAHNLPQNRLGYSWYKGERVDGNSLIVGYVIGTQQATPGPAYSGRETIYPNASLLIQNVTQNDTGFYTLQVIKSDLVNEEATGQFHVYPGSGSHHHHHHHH
Experimental: (§1) The proteins were expressed in E. coli, refolded and purified as described in Example 1. Comparative binding activity to domain 1 wild-type protein and the two single mutations was determined by ELISA method. 1.5 ug/ml protein solutions in PBS were coated overnight to 384 Nunc MaxiSorp plates (Sigma, P6491). Plates were washed with PBS/T and blocked with Smart block (CANDOR Bioscience GmbH, 113125). […] After washing with PBS/T, bound antibodies were detected with Anti Human IgG Fc POD (Sigma, A0170) and 10 μM Amplex Red solution (Thermo, A12222). Positive binding signals were detected via Fluorescence (Ex. 535 nm/Em. 590 nm).

[2] = molecular target: T2, Human CEACAM6-Domain 1-His-I30F (I63F according to SEQ-ID NO: 179) (human); experiment: ELISA, domain 1 protein coated
T2 construct: the entry already carries the substitution; also called TPP-8698
T2 chain: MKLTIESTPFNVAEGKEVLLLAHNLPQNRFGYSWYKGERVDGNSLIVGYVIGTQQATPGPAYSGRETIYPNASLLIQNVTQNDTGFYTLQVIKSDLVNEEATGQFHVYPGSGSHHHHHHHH
Experimental: as §1

B1: TPP-3310 (antibody, human IgG2, kappa)
heavy: QVTLRESGPALVKPTQTLTLTCTFSGFSLSTYGIGVGWIRQPPGKALEWLAHIWWNDNKYYSTSLKTRLTISKDTSKNQVVLTMTNMDPVDTATYYCARISLPYFDYWGQGTTLTVSSASTKGPSVFPLAPCSRSTSESTAALGCLVKDYFPEPVTVSWNSGALTSGVHTFPAVLQSSGLYSLSSVVTVPSSNFGTQTYTCNVDHKPSNTKVDKTVERKCCVECPPCPAPPVAGPSVFLFPPKPKDTLMISRTPEVTCVVVDVSHEDPEVQFNWYVDGVEVHNAKTKPREEQFNSTFRVVSVLTVVHQDWLNGKEYKCKVSNKGLPAPIEKTISKTKGQPREPQVYTLPPSREEMTKNQVSLTCLVKGFYPSDIAVEWESNGQPENNYKTTPPMLDSDGSFFLYSKLTVDKSRWQQGNVFSCSVMHEALHNHYTQKSLSLSPG
light: DIQLTQSPSFLSASVGDRVTITCKASQNVGTAVAWYQQKPGKAPKLLIYSASNRYTGVPSRFSGSGSGTEFTLTISSLQPEDFATYYCQQYSSYPLTFGGGTKVEIKRTVAAPSVFIFPPSDEQLKSGTASVVCLLNNFYPREAKVQWKVDNALQSGNSQESVTEQDSKDSTYSLSSTLTLSKADYEKHKVYACEVTHQGLSSPVTKSFNRGEC
notes: humanized from TPP-2971, human IgG2; also called TPP-2971HU1-hIgG2Kappa
What does the source list for B1?
binding result [1]: binds; binding result [2]: no binding
